Measured values: patent CN117255804A (GENSCRIPT NANJING CO LTD, dated 2023)

What follows are binders tested against T1, 人4-1BB (human, UniProt Q07011 24-255) (assay: FACS on HEK293 cells expressing human 4-1BB, 1.0 ug/ml).
T1 construct: whole, on cells; also called TNFRSF9; CD137
T1 sequence (Q07011 24-255): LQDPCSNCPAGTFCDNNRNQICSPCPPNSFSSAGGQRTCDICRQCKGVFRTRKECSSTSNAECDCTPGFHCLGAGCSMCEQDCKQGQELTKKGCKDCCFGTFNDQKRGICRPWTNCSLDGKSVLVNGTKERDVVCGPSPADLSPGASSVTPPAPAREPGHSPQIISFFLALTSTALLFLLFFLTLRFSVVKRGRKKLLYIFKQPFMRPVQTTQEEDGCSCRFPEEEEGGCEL

binding result | Binder
binds | 367C3A3-VH1-VL2 (antibody, IgG4, V domains shown, Humanized mAb; Only VH and VL are tied to it) VH: QVQLVQSGSELKKPGASVKVSCKASGYTFTDYSMHWVRQAPGQGLEWMGWINTETGEPTYADDFKGRFVFSLDTSVSTAYLQISSLKAEDTAVYYCARYDYAMDYWGQGTLVTVSS VL: DIQMTQSPSTLSASVGDRVTITCKASQDVSSAVAWYQQKSGKAPKLLIYWASIRHTGVPSRFSGSGSGTEFTLTISSLQPDDFATYYCQQRYTTPPTFGGGTKVEIK
binds | 367C3A3-VH2-VL1 (antibody, IgG4, V domains shown, Humanized mAb; Only VH and VL are tied to it) VH: QVQLVQSGAEVKKPGASVKVSCKASGYTFTDYSMHWVRQAPGQRLEWMGWINTETGEPTYADDFKGRVTITRDTSASTAYMELSSLRSEDTAVYYCARYDYAMDYWGQGTLVTVSS VL: DIQMTQSPSSLSASVGDRVTITCKASQDVSSAVAWYQQKPGKAPKLLIYWASIRHTGVPSRFSGSGSGTDFTLTISSLQPEDFATYYCQQRYTTPPTFGGGTKVEIK
binds | 367C3A3-VH2-VL2 (antibody, IgG4, V domains shown, Humanized mAb; Only VH and VL are tied to it) VH: QVQLVQSGAEVKKPGASVKVSCKASGYTFTDYSMHWVRQAPGQRLEWMGWINTETGEPTYADDFKGRVTITRDTSASTAYMELSSLRSEDTAVYYCARYDYAMDYWGQGTLVTVSS VL: DIQMTQSPSTLSASVGDRVTITCKASQDVSSAVAWYQQKSGKAPKLLIYWASIRHTGVPSRFSGSGSGTEFTLTISSLQPDDFATYYCQQRYTTPPTFGGGTKVEIK
binds | 382A3E3-VH1-VL3 (antibody, IgG4, V domains shown, Humanized mAb; Only VH and VL are tied to it) VH: EVQLVESGGGLVQPGGSLRLSCAASGFTFSDYGMSWVRQAPGKGLEWVSFISNVAYGIFYADTVTGRFTISRDNAKNSLYLQMNSLRAEDTAVYYCARDELGRFDYWGQGTLVTVSS VL: DIQMTQSPSSLSASVGDRVTITCHVSQNINIWLSWYQQKPGKAPKLLIYKASNLHTGVPSRFSGSGSGTDFTLTISSLQPEDFATYYCQQGQTFPRTFGGGTKVEIK
binds | 379E7A6-VH1-VL2 (antibody, IgG4, V domains shown, Humanized mAb; Only VH and VL are tied to it) VH: EVQLLESGGGLVQPGGSLRLSCAASGFTFSDYGMAWVRQAPGKGLEWVSFISNVAYSKFYVDTVTGRFTISRDNSKNTLYLQMNSLRAEDTAVYYCARDELGRFPYWGQGTLVTVSS VL: DIQMTQSPSTLSASVGDRVTITCHVSHNINIWLNWYQQKPGKAPKLLIYKASNLHTGVPSRFSGSGSGTEFTLTISSLQPDDFATYYCQQGQTFPRTFGGGTKVEIK
binds | 382A3E3-VH1-VL2 (antibody, V domains shown, Humanized mAb expressed in CHO-3E7) VH: EVQLVESGGGLVQPGGSLRLSCAASGFTFSDYGMSWVRQAPGKGLEWVSFISNVAYGIFYADTVTGRFTISRDNAKNSLYLQMNSLRAEDTAVYYCARDELGRFDYWGQGTLVTVSS VL: DIQMTQSPSTLSASVGDRVTITCHVSQNINIWLSWYQQKPGKAPKLLIYKASNLHTGVPSRFSGSGSGTEFTLTISSLQPDDFATYYCQQGQTFPRTFGGGTKVEIK
binds | 379E7A6-VH1-VL1 (antibody, IgG4, V domains shown, Humanized mAb; Only VH and VL are tied to it) VH: EVQLLESGGGLVQPGGSLRLSCAASGFTFSDYGMAWVRQAPGKGLEWVSFISNVAYSKFYVDTVTGRFTISRDNSKNTLYLQMNSLRAEDTAVYYCARDELGRFPYWGQGTLVTVSS VL: DIQMTQSPSSLSASVGDRVTITCHVSHNINIWLNWYQQKPGKAPKLLIYKASNLHTGVPSRFSGSGSGTDFTFTISSLQPEDIATYYCQQGQTFPRTFGGGTKVEIK
binds | 382A3E3-VH1-VL4 (antibody, IgG4, V domains shown, Humanized mAb; Only VH and VL are tied to it) VH: EVQLVESGGGLVQPGGSLRLSCAASGFTFSDYGMSWVRQAPGKGLEWVSFISNVAYGIFYADTVTGRFTISRDNAKNSLYLQMNSLRAEDTAVYYCARDELGRFDYWGQGTLVTVSS VL: DIQMTQSPSSLSASVGDRVTITCHVSQNINIWLSWYQQKPGKVPKLLIYKASNLHTGVPSRFSGSGSGTDFTLTISSLQPEDVATYYCQQGQTFPRTFGQGTKVEIK
binds | 382A3E3-VH2-VL5 (antibody, IgG4, V domains shown, Humanized mAb; Only VH and VL are tied to it) VH: QVQLVESGGGVVQPGGSLRLSCAASGFTFSDYGMSWVRQAPGKGLEWVAFISNVAYGIFYADTVTGRFTISRDNSKNTLYLQMNSLRAEDTAVYYCAKDELGRFDYWGQGTLVTVSS VL: DIQLTQSPSFLSASVGDRVTITCHVSQNINIWLSWYQQKPGKAPKLLIYKASNLHTGVPSRFSGSGSGTEFTLTISSLQPEDFATYYCQQGQTFPRTFGGGTKVEIK
binds | 382A3E3-VH1-VL5 (antibody, IgG4, V domains shown, Humanized mAb; Only VH and VL are tied to it) VH: EVQLVESGGGLVQPGGSLRLSCAASGFTFSDYGMSWVRQAPGKGLEWVSFISNVAYGIFYADTVTGRFTISRDNAKNSLYLQMNSLRAEDTAVYYCARDELGRFDYWGQGTLVTVSS VL: DIQLTQSPSFLSASVGDRVTITCHVSQNINIWLSWYQQKPGKAPKLLIYKASNLHTGVPSRFSGSGSGTEFTLTISSLQPEDFATYYCQQGQTFPRTFGGGTKVEIK
